Data from article PMC4248446.

Target: receptor for advanced glycation end products (RAGE) (human (endogenous in HPAEC)) (UniProt Q15109)
Chain of UniProt Q15109 (Q15109 23-404): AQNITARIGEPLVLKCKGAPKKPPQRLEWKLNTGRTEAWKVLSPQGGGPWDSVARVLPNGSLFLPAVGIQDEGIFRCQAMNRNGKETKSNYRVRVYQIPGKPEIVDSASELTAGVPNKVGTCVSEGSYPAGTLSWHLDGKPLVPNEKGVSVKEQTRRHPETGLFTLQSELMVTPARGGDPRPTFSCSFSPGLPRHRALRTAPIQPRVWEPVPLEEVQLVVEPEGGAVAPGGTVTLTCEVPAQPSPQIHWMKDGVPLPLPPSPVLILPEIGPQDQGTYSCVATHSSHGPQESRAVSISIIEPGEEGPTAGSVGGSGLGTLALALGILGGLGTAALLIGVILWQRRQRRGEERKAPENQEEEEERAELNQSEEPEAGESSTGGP

“recombinant high mobility group box-1 (HMGB1) (from UniProt P09429 1-215) (ligand)” was tested, and the ET-1 release from HPAECs induced by HMGB1 (40 ng/ml), ELISA of the culture supernatant, with anti-RAGE antibody (ab3611; Abcam; 1 μg/ml) co-treated was 349 pg/mL.
